Measured values from US20100015650.

Test system: BRB1 tyrosine kinase substrate peptide
Sequence (chain, as listed by the source): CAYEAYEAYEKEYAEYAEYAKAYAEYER

Chain of TRKA (NTRK1) (chain, as listed by the source): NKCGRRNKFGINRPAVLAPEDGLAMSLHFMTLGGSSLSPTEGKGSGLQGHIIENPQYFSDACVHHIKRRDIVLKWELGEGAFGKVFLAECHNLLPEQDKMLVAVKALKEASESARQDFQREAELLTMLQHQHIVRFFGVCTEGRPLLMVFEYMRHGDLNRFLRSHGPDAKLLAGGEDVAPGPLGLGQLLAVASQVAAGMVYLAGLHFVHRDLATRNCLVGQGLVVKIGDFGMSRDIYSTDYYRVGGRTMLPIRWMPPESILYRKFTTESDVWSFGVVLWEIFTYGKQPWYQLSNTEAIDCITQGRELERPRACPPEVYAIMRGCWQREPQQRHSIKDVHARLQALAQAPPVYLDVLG
Chain of BLK (chain, as listed by the source): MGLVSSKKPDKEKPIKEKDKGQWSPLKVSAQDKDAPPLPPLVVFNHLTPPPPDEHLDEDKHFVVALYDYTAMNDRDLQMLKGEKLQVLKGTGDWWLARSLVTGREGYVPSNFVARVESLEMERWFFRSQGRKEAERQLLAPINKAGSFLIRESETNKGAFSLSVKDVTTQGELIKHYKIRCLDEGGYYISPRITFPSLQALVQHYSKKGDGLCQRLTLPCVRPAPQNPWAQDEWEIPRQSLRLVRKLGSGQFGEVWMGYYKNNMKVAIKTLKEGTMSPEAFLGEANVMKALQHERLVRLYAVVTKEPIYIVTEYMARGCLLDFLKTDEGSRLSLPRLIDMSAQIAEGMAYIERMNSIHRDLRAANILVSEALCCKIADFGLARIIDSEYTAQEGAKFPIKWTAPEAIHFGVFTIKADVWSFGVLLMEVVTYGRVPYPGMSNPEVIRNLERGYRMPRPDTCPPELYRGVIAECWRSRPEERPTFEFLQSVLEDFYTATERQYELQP
Chain of EphA7 (chain, as listed by the source): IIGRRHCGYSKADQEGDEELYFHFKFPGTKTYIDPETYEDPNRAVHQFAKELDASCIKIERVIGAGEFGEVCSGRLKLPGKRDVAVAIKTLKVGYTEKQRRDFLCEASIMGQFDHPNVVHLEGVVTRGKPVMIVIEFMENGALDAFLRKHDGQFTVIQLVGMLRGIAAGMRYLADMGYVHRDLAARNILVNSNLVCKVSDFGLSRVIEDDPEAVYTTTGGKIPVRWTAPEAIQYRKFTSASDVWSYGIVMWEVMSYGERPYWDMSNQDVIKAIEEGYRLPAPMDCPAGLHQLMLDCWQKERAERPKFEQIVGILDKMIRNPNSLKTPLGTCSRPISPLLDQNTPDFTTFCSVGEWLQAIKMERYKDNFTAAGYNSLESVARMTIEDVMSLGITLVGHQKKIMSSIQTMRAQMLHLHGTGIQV
Chain of TRKB (NTRK2) (chain, as listed by the source): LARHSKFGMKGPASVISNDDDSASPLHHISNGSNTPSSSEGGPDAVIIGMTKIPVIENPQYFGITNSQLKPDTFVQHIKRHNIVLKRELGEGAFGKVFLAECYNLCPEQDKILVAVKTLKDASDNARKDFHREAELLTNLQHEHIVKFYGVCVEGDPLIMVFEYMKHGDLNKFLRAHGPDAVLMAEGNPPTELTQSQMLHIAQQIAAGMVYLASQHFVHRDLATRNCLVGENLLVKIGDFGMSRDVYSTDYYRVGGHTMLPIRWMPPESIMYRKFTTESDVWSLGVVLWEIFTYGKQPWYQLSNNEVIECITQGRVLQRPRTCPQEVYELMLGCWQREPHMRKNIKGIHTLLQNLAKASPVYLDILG
Chain of YES (chain, as listed by the source): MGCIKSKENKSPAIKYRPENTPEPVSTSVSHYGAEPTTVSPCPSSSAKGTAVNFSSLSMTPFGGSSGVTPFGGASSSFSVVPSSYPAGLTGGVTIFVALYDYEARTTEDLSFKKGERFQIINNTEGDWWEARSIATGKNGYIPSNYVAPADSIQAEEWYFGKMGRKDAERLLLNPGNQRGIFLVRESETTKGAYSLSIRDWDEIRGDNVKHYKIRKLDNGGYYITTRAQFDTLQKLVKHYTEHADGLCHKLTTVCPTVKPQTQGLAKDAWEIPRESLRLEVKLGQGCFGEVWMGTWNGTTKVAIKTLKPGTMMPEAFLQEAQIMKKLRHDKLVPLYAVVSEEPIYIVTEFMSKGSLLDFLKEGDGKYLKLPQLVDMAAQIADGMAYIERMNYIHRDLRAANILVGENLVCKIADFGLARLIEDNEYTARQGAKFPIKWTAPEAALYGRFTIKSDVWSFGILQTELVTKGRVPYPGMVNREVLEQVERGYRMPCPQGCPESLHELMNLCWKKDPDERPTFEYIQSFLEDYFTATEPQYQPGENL
Chain of TRKC (NTRK3) (chain, as listed by the source): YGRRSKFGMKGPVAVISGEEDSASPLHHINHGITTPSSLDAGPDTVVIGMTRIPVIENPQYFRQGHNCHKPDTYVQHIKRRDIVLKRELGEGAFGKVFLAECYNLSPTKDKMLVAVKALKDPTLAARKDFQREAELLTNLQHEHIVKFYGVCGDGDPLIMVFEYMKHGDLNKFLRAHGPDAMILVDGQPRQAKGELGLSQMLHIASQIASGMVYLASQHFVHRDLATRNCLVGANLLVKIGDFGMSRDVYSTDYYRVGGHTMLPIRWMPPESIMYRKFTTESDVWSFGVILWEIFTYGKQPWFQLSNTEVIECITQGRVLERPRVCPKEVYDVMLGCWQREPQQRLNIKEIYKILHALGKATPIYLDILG

| Substance | Signal to Noise ratio with BRB1 Peptide (TR-FRET kinase assay; kinase 0.5 nM) | further results |
| --- | --- | --- |
| BLK | 31 |  |
| EphA7 | 17.2 |  |
| FGR |  | Signal to Noise ratio with BRB1 Peptide (TR-FRET kinase assay; kinase 0.1 nM): 29.3 |
| LYNa | 32.5 |  |
| TRKA (NTRK1) | 23.2 |  |
| TRKB (NTRK2) | 28 |  |
| TRKC (NTRK3) | 6.4 |  |
| YES |  | Signal to Noise ratio with BRB1 Peptide (TR-FRET kinase assay; kinase 0.25 nM): 28 |
